Read-outs that look alike come from different tables or passages of the source.

Consider three molecules from US20140328858, “LIN28-MEDIATED CONTROL OF LET-7 BIOGENESIS” (Children's Medical Center Corporation, published 2014).

The test system of series [1] is immunopurified Flag-Lin28.
Series [2] has as its target immunopurified Flag-Lin28. The source holds these as a separate data set.
Series [3] addresses T1, Lin28A (Homo sapiens, UniProt Q9H9Z2 Q9H9Z2:2-209).
T1 sequence: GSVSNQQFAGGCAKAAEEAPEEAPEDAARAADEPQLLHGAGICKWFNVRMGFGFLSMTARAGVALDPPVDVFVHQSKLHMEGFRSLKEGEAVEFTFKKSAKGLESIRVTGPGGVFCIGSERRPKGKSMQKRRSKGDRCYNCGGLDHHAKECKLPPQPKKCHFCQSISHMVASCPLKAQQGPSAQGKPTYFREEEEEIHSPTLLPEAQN
Nature of the series: EMSA; 50 mM Tris pH 7.5, 100 mM NaCl, 10 mM bME, RT, 0.5 nM RNA; Kd fitted (Hill) but value not in text. Conditions: tags: 6xHis N-terminal, E. coli (pET21); label: 5'-end label (EMSA); hairpin. Here is the method: (§1) EMSA was performed with pre-let-7g to analyze the relative binding affinities of the two recombinant proteins. Lin28A and Lin28B have apparent Kds of approximately 0.6 nM and 0.5 nM, respectively (FIG. 7B). Both these estimated Kds are much lower than a previously reported for recombinant mouse Lin28A. This difference is likely due to the omission here of nonspecific yeast tRNA competitor used previously in the binding buffer. Piskounova et al., 2008. […] Collectively, these assays reveal that both Lin28 proteins can directly bind to let-7 precursors with high-affinity in vitro.
(§2) Transformed BL21-CodonPlus® Competent bacteria (Stratagene) were grown to an OD600 nm of 0.4-0.6. Expression was induced 100 μM IPTG for 2-3 hours. Cell pellets were resuspended in cold lysis buffer [20 mM imidazole pH 8.0 in PBS, 0.1% Phenylmethyl sulfonyl fluoride (PMSF)] and sonicated. Cleared lysates were incubated with Ni-NTA beads and after 90 min incubation at 4° C. the beads were washed with 80-column-vol. wash buffer [10 mM Tris (pH 7.8), 50 mM imidazole pH 8.0, 500 mM NaCl, 0.1% PMSF). […] Band intensities of scanned gels were quantified using ImageJ software and used to calculate percentage of probe bound. […]
A general note: In EMSA bound probe runs differently from free probe, usually more slowly.

The target in series [4] is T2, Lin28B (Homo sapiens, UniProt Q6ZN17 Q6ZN17:2-250).
T2 sequence: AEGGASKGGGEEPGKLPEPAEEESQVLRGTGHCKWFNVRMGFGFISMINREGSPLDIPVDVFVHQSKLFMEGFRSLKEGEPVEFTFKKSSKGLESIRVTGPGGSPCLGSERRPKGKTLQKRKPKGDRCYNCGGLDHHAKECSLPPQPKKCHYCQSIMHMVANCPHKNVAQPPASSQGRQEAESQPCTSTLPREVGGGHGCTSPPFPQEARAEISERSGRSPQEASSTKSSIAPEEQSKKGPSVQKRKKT
The description is as above. Conditions: tags: 6xHis N-terminal, E. coli (pET21); label: 5'-end label (EMSA); hairpin. The protocol: as §1, §2

As to “mZcchc11 ΔC2H2 (N-terminal truncation lacking the C2H2 zinc finger)”, in series [1], the “in vitro uridylation of synthetic pre-let-7 (incorporation of radiolabeled UTP)” value is on record as “Loss of the N-terminal C2H2 domain still allowed for basal activity, but this mutant could no longer support Lin28-enhanced uridylation against pre-let-7”.

B1: mZcchc11 C326/329A (full-length) (protein)
chain: MEEPKTSKNENHEPKKNIICEESKAVKIISNQTLKPRNDKSEIGTSSLNRNSSKKTKQNDICIEKTEAKSCKVNAASVPGPKDLGLVHRDQSHCKMKKLPNSPMKAQKGSSQTKLEKTPSLQTKAEKVPKSPNLPVKAEKAPCTTAEATTEKALNSQRKEENTPTSQMKLQKTPRSPLEPENVPSLLLKENVKQTESQQTGKKLTSSFVSMDKRKSEALQGEKSALENSSLSQKQQTQTDNIADSDDSASGIEDTADDLSKMKSEESNKENSSEMDYLENATVIDESALTPEQRLGLKQAEERLERDHIFRLEKRSPEYTNCRYLAKLALIHIENIQGAHKHIKEKRHKKNILEKQEESELRSLPSPSSAHLAALSVAVVELAKEQGITDDDLRIRQDIVEEMSKVIMTFLPECSLRLYGSSLTKFALKSSDVNIDIKFPPKMNHPDLLIQVLGILKKSALYIDVESDFHAKVPVVVCKDRKSALLCRVSAGNDMACLTTDLLAALGKVEPVFTPLVLAFRYWAKLCYIDSQTDGGIPSYCFALMVMFFLQQRKPPLLPCLLGSWIEGFDPKRMDDFQLKGIVEEKFVKWEYNSSSATEKNLIADENKAKADEPKDDTKKTETDNQSNAAKAKHGKSPLTLEAPNQVPLGQLWLELLKFYTLDFALEEYVICVRIQDILTRENKNWPKRRIAIEDPFSVKRNVARSLNSQLVYEYVVERFRAAYRYFACPQKKGGNKSTMDPKKKEKGKLSSKKPVKSDCSATNCCILGESAEKIHMERGQPAKHDETEFTSQRCIVDNDSLLVNELGLANHGQDSSSLSTASGGSDLKQKSAEKQGDLTPSETSLKKELSQCICIGTPDGAESAGTDCRSNLEMDSSHQIVCNNVSATSCNCKATEVTSDLVDEDNLPSQELYYVFDKFILTSGKPPTIVCSICKKDGHSKNDCPEDFRKIDLKPLPPMTNRFREILDLVCKRCFDELSPPCSEQHNREQILIGLEKFIQKEYDEKARLCLFGSSKNGFGFRDSDLDICMTLEGHENAEKLNCKEIIENLAKILKRHPGLRNILPITTAKVPIVKFEHRRSGLEGDISLYNTLAQHNTRMLATYAAIDPRVQYLGYTMKVFAKRCDIGDASRGSLSSYAYILMVLYFLQQRKPPVIPVLQEIFDGKQIPQRMVDGWNAFFFDKTEELKKRLPSLGKNTESLGELWLGLLRFYTEEFDFKEYVISIRQKKLLTTFEKQWTSKCIAIEDPFDLNHNLGAGVSRKMTNFIMKAFINGRKLFGTPFYPLIGREAEYFFDSRVLTDGELAPNDRCCRVCGKIGHYMKDCPKRKRLKKKDSEEEKEGNEEEKDSRDLLDSRDLRCFICGDAGHVRRECPEVKMARQRNSSVAAAQLVRNLVNAQQVAGSAQQQSDQSIRTRQSSECSDSPSYSPQPQPFPQNSPQPSALPPPPSQPGSQPKLGPPQQGGQPPHQVQMPLYNFPQSPPAHYSPMHSMGLLPMHPLQIPAPSWPIHGPMLHSAPGSTPSNIGLNDPSIIFAQPAARPMAIPSPSHDGHWPRTVAPNSLVNNGAVGNSEPRFRGLNPPIPWEHAPRHFPLVPASWPYGLHQNFMHQGNPRFQPKPFYAQADRCATRRCRERCPHPPRGNVSE
For the molecule B1, in series [2], the “in vitro uridylation of synthetic pre-let-7 (incorporation of radiolabeled UTP)” value is “this mutant exhibited only basal uridylation activity, as the addition of Lin28 had no impact on its catalysis in vitro”.

B2: pre-let-7g (ssRNA)
RNA: GAGGUAGUAGUUUGUACAGUUUGAGGGUCUAUGAUACCACCCGGUACAGGAGAUAACUGUACAGGCCACUGCCUUGC
Take B2: the binding result in series [3] and in series [4] was “binds” in each case.
